Here are results for one substance from patent publication US20030215899A1, “Reversible oxidation of protein tyrosine phosphatases” (CEPTYR, Inc., priority 2002, published 2003).

For this test, the target named is PDGFR (ligand-activated, tyrosine phosphorylated) (rat (endogenous protein of Rat-1 fibroblasts)) (UniProt Q05030). Briefly: preliminary studies in ligand-stimulated Rat-1 cells; method not stated.
Chain of PDGFR (ligand-activated, tyrosine phosphorylated) (rat (endogenous protein of Rat-1 fibroblasts)) (Q05030 32-1097 limits assumed): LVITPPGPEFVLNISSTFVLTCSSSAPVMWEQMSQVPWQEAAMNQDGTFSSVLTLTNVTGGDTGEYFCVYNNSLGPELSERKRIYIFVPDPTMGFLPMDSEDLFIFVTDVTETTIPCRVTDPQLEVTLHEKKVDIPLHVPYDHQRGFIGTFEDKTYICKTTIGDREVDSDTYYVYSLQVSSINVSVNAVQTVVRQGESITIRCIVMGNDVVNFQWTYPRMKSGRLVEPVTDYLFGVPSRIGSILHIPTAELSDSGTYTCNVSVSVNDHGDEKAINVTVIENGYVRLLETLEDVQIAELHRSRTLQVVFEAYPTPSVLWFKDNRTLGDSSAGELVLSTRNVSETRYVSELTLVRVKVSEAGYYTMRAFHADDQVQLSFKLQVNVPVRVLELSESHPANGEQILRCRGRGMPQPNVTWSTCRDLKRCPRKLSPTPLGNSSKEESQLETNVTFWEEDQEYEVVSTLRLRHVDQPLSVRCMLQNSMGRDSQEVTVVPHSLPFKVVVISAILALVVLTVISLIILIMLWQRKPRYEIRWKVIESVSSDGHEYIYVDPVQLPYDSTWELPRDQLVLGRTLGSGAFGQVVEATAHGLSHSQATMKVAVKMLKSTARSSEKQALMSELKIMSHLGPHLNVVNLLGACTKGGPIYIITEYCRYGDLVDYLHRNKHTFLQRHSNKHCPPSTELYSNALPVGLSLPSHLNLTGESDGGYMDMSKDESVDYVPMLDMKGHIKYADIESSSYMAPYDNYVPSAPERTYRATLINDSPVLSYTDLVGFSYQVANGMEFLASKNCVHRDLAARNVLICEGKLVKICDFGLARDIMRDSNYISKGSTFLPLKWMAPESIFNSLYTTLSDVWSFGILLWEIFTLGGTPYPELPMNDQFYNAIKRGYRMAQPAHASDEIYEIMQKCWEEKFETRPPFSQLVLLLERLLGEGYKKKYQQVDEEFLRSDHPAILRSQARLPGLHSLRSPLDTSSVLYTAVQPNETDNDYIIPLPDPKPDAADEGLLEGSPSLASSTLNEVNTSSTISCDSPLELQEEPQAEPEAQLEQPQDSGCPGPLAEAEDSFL

In the case of “SHP-2 (from UniProt P41499 2-593) (enzyme)”, the percent of the total population of SHP-2 recruited into a complex is 10%.
